In one experiment the target is T1, NKp46 D1 domain-Ig (human, UniProt O76036 22-120).
T1 construct: domain: D1; also called D1-Ig; Ig-D1; not shown: Ig part not described for this construct
Nature of the experiment: ELISA, D1-Ig plated at 0.1 ug/well, biotin anti-mouse / streptavidin-POD / TMB, OD 650nm. The method, then:
To identify the binding site of the anti-NKp46 mAbs, Ig-D1, Ig-D2 and Ig-NKp46 were plated at 0.1 µg/well. The plate was placed at 4° C. overnight. The next day blocking was performed (blocking buffer is PBSx1, 0.05%Tween-20, and 5% BSA) followed by addition of the mAbs at 0.1 µg/well and 10 µl/well of SN antibodies (both diluted in blocking buffer to a final volume of 100µl). The plate was placed at 4° C. overnight. The next day, biotin anti-mouse was added (diluted in blocking buffer), followed by streptavidin-POD (diluted in blocking buffer), and with TMB for detection of samples at OD650nm.

Experiment [1] addresses T2, Acro Biosystems Human NKp46 expressed in HEK293 cells (human, UniProt O76036 22-258).
T2 construct: Bought antigen coated on the ELISA plate
Briefly: ELISA titration on coated Acro Biosystems human NKp46, anti-human kappa-HRP, absorbance at 450 nm; given as affinity. The method, then: The binding of the humanized antibodies with mutated IgG4 to cells expressing NKp46 was examined. The experiments were performed as follows: [0300] 1. Coat tested in a matrix of 3 conc. vs. 3 buffers to find optimal signal. [0301] 2. Optimal signal conditions were used to coat the ELISA tray, using standard blocking and washing steps. [0302] 3. Primary antibody applied in range of concentrations with 10-dilutions (MAbs with humanized variable + mutated IgG4). [0303] 4. Secondary Ab used to detect binding was Anti-Hu Kappa with HRP (TMB sub strate). [0304] 5. Absorbance measured at 450 nm.
The antigen was Acro Biosystems Human NKp46 that was expressed in HEK293 cells.
(In general: ELISA stands for enzyme-linked immunosorbent assay.)

T2 sequence (O76036 22-258 limits assumed): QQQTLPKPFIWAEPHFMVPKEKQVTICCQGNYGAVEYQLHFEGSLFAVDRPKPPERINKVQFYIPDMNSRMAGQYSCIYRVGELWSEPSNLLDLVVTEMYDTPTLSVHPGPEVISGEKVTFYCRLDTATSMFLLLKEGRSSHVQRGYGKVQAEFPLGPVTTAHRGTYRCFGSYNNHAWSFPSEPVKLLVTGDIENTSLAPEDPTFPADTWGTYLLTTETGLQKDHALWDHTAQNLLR
T1 sequence (O76036 22-120): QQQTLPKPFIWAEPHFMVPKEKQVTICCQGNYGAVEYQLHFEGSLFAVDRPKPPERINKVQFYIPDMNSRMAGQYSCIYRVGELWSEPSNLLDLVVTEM

B1: anti-NKp46 monoclonal antibody clone K3 (antibody, V domains shown)
VH: EVQLQQSGPELVKPGTSVKISCKTSGYTFTEYSMHWVKQSHGKSLEWFGGISPNSGGTSYNQKFKGKATLTVDKSSSTAYMELRSLTSEDSAVYYCARRDFHSSFDYWGQGTTLTVSS
VL: DIVLTQSPATLSVTPGNSVSLSCRASQSISDYLHWFQQKSHESPRLLIKYASQSISGIPSRFSGSGSGSDFTLSINSVEPEDVGVYYCQNGHSFPLTFGPGTKLELK
With B1, in the experiment with NKp46 D1 domain-Ig, the binding result is on record as “no binding”.

B2: humanized P4 antibody having mutated IgG4 (antibody, V domains shown)
VH: EVQLQQSGAEVKKPGSSVKVSCKTSGYTFTEYSMHWVRQAPGKSLEWFGGISPNSGGTSYNQKFKGRATLTVDKSSSTAYMELSSLRSEDTAVYYCARRDFHSSFDYWGQGTTVTVSS
VL: DIVMTQSPATLSLSPGERATLSCRASQSISDYLHWFQQKPHESPRLLIKYASQSISGIPARFSGSGSGSDFTLTISSLEPEDFAVYYCQNGHSFPLTFGPGTKVDIK
notes: detected with an anti-human kappa secondary antibody
Consider B2, for which the dissociation constant (Kd) – broadly, the free concentration of one partner at which half of the binding sites on the other are occupied at equilibrium, for simple one-to-one binding – in experiment [1] is 0.0205 nM.

B3: humanized K3 antibody having mutated IgG4 (antibody, V domains shown)
VH: EVQLQQSGAEVKKPGSSVKVSCKTSGYTFTEYSMHWVRQAPGKSLEWFGGISPNSGGTSYNQKFKGRATLTVDKSSSTAYMELSSLRSEDTAVYYCARRDFHSSFDYWGQGTTVTVSS
VL: DIVLTQSPATLSLSPGERATLSCRASQSISDYLHWFQQKPHESPRLLIKYASQSISGIPARFSGSGSGSDFTLTISSLEPEDFAVYYCQNGHSFPLTFGPGTKVDIKR
notes: as for B2
With B3, the affinity in experiment [1], expressed as Kd, was 0.027 nM.

The values above are taken from patent publication US20230183342A1 (YISSUM RESEARCH DEVELOPMENT COMPANY OF THE HEBREW …, published 2023).
